Target: Haemophilus influenzae tellurite-resistance protein A (HiTehA) (Haemophilus influenzae) (UniProt P44741)
Assay: cryo-EM structure; single-particle cryo-EM at 200 kV (Glacios, Falcon 4) of purified HiTehA at 3.0 mg/mL in detergent micelles (DDM, GDN, LMNG or OG); C3 symmetry imposed; no binding protein used

## Haemophilus influenzae tellurite-resistance protein A (HiTehA) (from UniProt P44741 1-328) (natural protein)
  stoichiometry N: 3
